Patent publication US20100322950A1

Biological target: CD44 receptors on SMMC-7721-SC2 hepatocellular carcinoma cells (human) (UniProt P16070)
Experiment: cell-based or functional assay

CD44 receptors on SMMC-7721-SC2 hepatocellular carcinoma cells (human), sequence (P16070 21-742): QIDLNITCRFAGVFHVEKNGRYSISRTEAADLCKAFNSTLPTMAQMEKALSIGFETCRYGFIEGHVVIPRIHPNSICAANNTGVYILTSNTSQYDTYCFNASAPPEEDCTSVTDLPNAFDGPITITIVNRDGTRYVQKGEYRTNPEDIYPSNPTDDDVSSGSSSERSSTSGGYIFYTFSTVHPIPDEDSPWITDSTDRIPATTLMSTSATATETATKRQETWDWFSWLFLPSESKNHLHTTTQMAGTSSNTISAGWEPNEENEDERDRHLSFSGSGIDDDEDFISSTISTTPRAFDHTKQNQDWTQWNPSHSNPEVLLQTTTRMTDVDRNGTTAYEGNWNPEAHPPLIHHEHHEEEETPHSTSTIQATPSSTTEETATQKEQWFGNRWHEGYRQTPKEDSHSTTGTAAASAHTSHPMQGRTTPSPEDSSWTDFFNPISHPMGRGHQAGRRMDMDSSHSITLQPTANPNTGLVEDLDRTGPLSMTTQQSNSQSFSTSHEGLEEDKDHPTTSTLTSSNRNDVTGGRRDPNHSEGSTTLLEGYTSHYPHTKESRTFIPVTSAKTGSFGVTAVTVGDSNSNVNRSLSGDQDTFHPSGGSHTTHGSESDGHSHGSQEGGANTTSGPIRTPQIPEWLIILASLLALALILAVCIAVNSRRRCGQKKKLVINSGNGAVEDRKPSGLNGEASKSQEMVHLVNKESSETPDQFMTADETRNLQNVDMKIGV

- cellular invasion of SMMC-7721-SC2 cells through Matrigel, 36 hours: > 2 fold
Substance: OPN-5 kD expressed from the pDest-490 vector with C-terminal 1xFLAG tag (from UniProt P10451 167-210) (ligand)
